# B1: anti-EGFR antibody GC1118A (antibody, V domains shown)
# VH: EVQLVESGGGVVQPGGSLRLSCAASGFTFSDYDMSWIRQAPGKGLEWVSGILGGSERSYYRDSVKGRFTISRDNSRKTLYLQMNSLRAEDTAVYYCARHGSPGYTLYAWDYWGQGTTVTVSS
# VL: DIVMTQTPLSLPVTPGEPASISCRSNQDLTHSNGNTYLEWYLQKPGQSPRLLIYKVSNRFSGVPDRFSGSGAGTDFTLRISRVEAEDVGVYYCMQGTHWPWTFGQGTKVDIKR
# notes: These may hold only the part of the antibody that was crystallised
# Biological target: epidermal growth factor receptor (EGFR) (Homo sapiens (Human), UniProt P00533 25-645, limits assumed)
# Experiment: potency 1 binding assay (ELISA); RSM sample #15 (10 mg/ml antibody, 55 mM Na-acetate, pH 6.0, 150 mM NaCl) after storage at 60 C for 1 day, relative to control
# Experimental: (11) Potency 1 (Binding assay): ELISA reader (Spectra Max 190, Molecular Devices) was used for potency 1 analysis.
# The prepared samples were subjected to thermal tests, under the storage condition of: (i) 37° C. for two weeks; or (ii) 60° C. for one day.
binder,measurement,value
B1,EC50% as compared to a control group,114 to 121%
